Results: patent US20220033505A1 (Janssen / Centocor, published 2022)

B1: HC3B232 (CD3W246-LH-scFv-Fc x MHGB732-Fab-Fc) (bispecific antibody, human IgG1, kappa, L234A L235A)
scFv: DIQMTQSPSSLSASVGDRVTITCRARQSIGTAIHWYQQKPGKAPKLLIKYASESISGVPSRFSGSGSGTDFTLTISSVQPEDFATYYCQQSGSWPYTFGQGTKLEIKGGSEGKSSGSGSESKSTGGSEVQLVESGGGLVKPGGSLRLSCAASGFTFSRYNMNWVRQAPGKGLEWVSSISTSSNYIYYADSVKGRFTFSRDNAKNSLDLQMSGLRAEDTAIYYCTRGWGPFDYWGQGTLVTVSSEPKSSDKTHTCPPCPAPEAAGGPSVFLFPPKPKDTLMISRTPEVTCVVVSVSHEDPEVKFNWYVDGVEVHNAKTKPREEQYNSTYRVVSVLTVLHQDWLNGKEYKCKVSNKALPAPIEKTISKAKGQPREPQVYVYPPSREEMTKNQVSLTCLVKGFYPSDIAVEWESNGQPENNYKTTPPVLDSDGSFALVSKLTVDKSRWQQGNVFSCSVMHEALHNHYTQKSLSLSPGK
heavy: QVQLQQSGPGLVKPSQTLSLTCAISGDSVSSNSAAWNWIRQSPSRGLEWLGRTYYRSKWYNDYAVSVKSRITINPDTSKNQISLQLNSVTPEDTAVYYCAGDRRYGIVGLPFAYWGQGTLVTVSSASTKGPSVFPLAPSSKSTSGGTAALGCLVKDYFPEPVTVSWNSGALTSGVHTFPAVLQSSGLYSLSSVVTVPSSSLGTQTYICNVNHKPSNTKVDKKVEPKSCDKTHTCPPCPAPEAAGGPSVFLFPPKPKDTLMISRTPEVTCVVVSVSHEDPEVKFNWYVDGVEVHNAKTKPREEQYNSTYRVVSVLTVLHQDWLNGKEYKCKVSNKALPAPIEKTISKAKGQPREPQVYVLPPSREEMTKNQVSLLCLVKGFYPSDIAVEWESNGQPENNYLTWPPVLDSDGSFFLYSKLTVDKSRWQQGNVFSCSVMHEALHNHYTQKSLSLSPG
light: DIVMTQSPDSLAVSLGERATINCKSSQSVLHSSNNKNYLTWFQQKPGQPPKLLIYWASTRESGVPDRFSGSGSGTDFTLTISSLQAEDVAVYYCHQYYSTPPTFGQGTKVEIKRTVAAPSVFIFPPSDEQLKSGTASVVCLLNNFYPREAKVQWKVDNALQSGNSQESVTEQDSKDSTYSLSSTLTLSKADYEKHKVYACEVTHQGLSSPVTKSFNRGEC
B2: HC3B231 (CD3B450-LH-scFv-Fc x MHGB732-Fab-Fc) (bispecific antibody, human IgG1, kappa, L234A L235A)
scFv: QSALTQPASVSGSPGQSITISCTGTSSNIGTYKFVSWYQQHPGKAPKVMIYEVSKRPSGVSNRFSGSKSGNTASLTISGLQAEDEADYYCVSYAGSGTLLFGGGTKLTVLGGSEGKSSGSGSESKSTGGSQVQLQQSGPGLVKPSQTLSLTCAISGDSVFNNNAAWSWIRQSPSRGLEWLGRTYYRSKWLYDYAVSVKSRITINPDTSKNQFSLQLNSVTPEDTAVYYCARGYSSSFDYWGQGTLVTVSSEPKSSDKTHTCPPCPAPEAAGGPSVFLFPPKPKDTLMISRTPEVTCVVVSVSHEDPEVKFNWYVDGVEVHNAKTKPREEQYNSTYRVVSVLTVLHQDWLNGKEYKCKVSNKALPAPIEKTISKAKGQPREPQVYVYPPSREEMTKNQVSLTCLVKGFYPSDIAVEWESNGQPENNYKTTPPVLDSDGSFALVSKLTVDKSRWQQGNVFSCSVMHEALHNHYTQKSLSLSPG
heavy: B1 heavy
light: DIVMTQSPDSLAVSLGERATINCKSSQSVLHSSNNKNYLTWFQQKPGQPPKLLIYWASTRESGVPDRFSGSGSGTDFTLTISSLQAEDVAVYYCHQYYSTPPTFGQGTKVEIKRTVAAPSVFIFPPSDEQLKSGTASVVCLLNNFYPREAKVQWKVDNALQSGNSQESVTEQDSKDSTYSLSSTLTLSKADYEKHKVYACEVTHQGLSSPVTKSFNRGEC
B3: HC3B230 (CD3B219-LH-scFv-Fc x MHGB732-Fab-Fc) (bispecific antibody, human IgG1, kappa, L234A L235A)
scFv: QTVVTQEPSLTVSPGGTVTLTCRSSTGAVTTSNYANWVQQKPGQAPRGLIGGTNKRAPGTPARFSGSLLGGKAALTLSGVQPEDEAEYYCALWYSNLWVFGGGTKLTVLGGSEGKSSGSGSESKSTGGSEVQLVESGGGLVQPGGSLRLSCAASGFTFNTYAMNWVRQAPGKGLEWVARIRSKYNNYATYYAASVKGRFTISRDDSKNSLYLQMNSLKTEDTAVYYCVRHGNFGNSYVSWFAYWGQGTLVTVSSEPKSSDKTHTCPPCPAPEAAGGPSVFLFPPKPKDTLMISRTPEVTCVVVSVSHEDPEVKFNWYVDGVEVHNAKTKPREEQYNSTYRVVSVLTVLHQDWLNGKEYKCKVSNKALPAPIEKTISKAKGQPREPQVYVYPPSREEMTKNQVSLTCLVKGFYPSDIAVEWESNGQPENNYKTTPPVLDSDGSFALVSKLTVDKSRWQQGNVFSCSVMHEALHNHYTQKSLSLSPG
heavy: B1 heavy
light: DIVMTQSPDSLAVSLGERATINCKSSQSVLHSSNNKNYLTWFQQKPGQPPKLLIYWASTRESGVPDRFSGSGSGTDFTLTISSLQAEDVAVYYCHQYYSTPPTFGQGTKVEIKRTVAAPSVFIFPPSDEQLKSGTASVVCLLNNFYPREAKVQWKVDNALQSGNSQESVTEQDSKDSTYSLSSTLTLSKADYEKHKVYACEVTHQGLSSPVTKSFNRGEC
B4: HC3B238 (CD3W246-HL-scFv-Fc x MHGB738-Fab-Fc) (bispecific antibody, human IgG1, kappa, L234A L235A)
scFv: EVQLVESGGGLVKPGGSLRLSCAASGFTFSRYNMNWVRQAPGKGLEWVSSISTSSNYIYYADSVKGRFTFSRDNAKNSLDLQMSGLRAEDTAIYYCTRGWGPFDYWGQGTLVTVSSGGSEGKSSGSGSESKSTGGSDIQMTQSPSSLSASVGDRVTITCRARQSIGTAIHWYQQKPGKAPKLLIKYASESISGVPSRFSGSGSGTDFTLTISSVQPEDFATYYCQQSGSWPYTFGQGTKLEIKEPKSSDKTHTCPPCPAPEAAGGPSVFLFPPKPKDTLMISRTPEVTCVVVSVSHEDPEVKFNWYVDGVEVHNAKTKPREEQYNSTYRVVSVLTVLHQDWLNGKEYKCKVSNKALPAPIEKTISKAKGQPREPQVYVYPPSREEMTKNQVSLTCLVKGFYPSDIAVEWESNGQPENNYKTTPPVLDSDGSFALVSKLTVDKSRWQQGNVFSCSVMHEALHNHYTQKSLSLSPG
heavy: QVQLQQSGPGLVKPSQTLSLTCAISGDSVSSNRAAWNWIRQSPSRGLEWLGRTYYRSKWYNDYAVSVKSRITINPDTSKNQISLQLNSVTPEDTAVYYCARVRPGIPFDYWGQGTPVTVSSASTKGPSVFPLAPSSKSTSGGTAALGCLVKDYFPEPVTVSWNSGALTSGVHTFPAVLQSSGLYSLSSVVTVPSSSLGTQTYICNVNHKPSNTKVDKKVEPKSCDKTHTCPPCPAPEAAGGPSVFLFPPKPKDTLMISRTPEVTCVVVSVSHEDPEVKFNWYVDGVEVHNAKTKPREEQYNSTYRVVSVLTVLHQDWLNGKEYKCKVSNKALPAPIEKTISKAKGQPREPQVYVLPPSREEMTKNQVSLLCLVKGFYPSDIAVEWESNGQPENNYLTWPPVLDSDGSFFLYSKLTVDKSRWQQGNVFSCSVMHEALHNHYTQKSLSLSPG
light: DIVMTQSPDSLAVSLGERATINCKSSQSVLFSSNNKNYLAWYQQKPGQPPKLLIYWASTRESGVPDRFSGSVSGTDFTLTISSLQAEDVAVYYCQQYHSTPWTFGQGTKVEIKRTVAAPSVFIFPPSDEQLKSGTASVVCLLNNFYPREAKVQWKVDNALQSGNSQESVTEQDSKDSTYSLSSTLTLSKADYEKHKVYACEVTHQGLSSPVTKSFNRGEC
B5: HC3B236 (CD3B450-LH-scFv-Fc x MHGB738-Fab-Fc) (bispecific antibody, human IgG1, kappa, L234A L235A)
scFv: B2 scFv
heavy: B4 heavy
light: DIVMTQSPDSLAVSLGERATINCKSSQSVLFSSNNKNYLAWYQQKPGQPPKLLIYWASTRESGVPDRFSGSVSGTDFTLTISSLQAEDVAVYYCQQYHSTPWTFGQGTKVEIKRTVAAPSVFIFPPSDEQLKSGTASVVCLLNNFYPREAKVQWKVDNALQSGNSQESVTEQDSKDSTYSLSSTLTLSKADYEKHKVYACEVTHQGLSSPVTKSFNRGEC
B6: HC3B237 (CD3W246-LH-scFv-Fc x MHGB738-Fab-Fc) (bispecific antibody, human IgG1, kappa, L234A L235A)
scFv: B1 scFv
heavy: B4 heavy
light: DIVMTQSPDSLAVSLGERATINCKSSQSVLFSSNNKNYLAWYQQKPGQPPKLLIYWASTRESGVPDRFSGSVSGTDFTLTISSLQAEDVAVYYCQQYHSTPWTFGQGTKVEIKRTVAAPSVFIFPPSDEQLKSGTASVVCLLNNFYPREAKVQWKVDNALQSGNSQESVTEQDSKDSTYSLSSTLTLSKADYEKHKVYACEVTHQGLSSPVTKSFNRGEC
B7: HC3B235 (CD3B219-LH-scFv-Fc x MHGB738-Fab-Fc) (bispecific antibody, human IgG1, kappa, L234A L235A)
scFv: B3 scFv
heavy: B4 heavy
light: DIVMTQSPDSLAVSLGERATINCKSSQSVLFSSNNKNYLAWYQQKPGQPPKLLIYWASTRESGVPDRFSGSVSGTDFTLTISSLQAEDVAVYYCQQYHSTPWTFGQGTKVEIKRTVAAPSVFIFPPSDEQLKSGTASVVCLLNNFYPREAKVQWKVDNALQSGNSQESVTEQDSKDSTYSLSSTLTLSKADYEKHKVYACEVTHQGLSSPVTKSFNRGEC
B8: HC3B125 (CD3B376-Fab-Fc x MHGB732-LH-scFv-Fc, no C-terminal Lys) (bispecific antibody, human IgG1, lambda, L234A L235A)
heavy: QVQLQQSGPRLVRPSQTLSLTCAISGDSVFNNNAAWSWIRQSPSRGLEWLGRTYYRSKWLYDYAVSVKSRITVNPDTSRNQFTLQLNSVTPEDTALYYCARGYSSSFDYWGQGTLVTVSSASTKGPSVFPLAPSSKSTSGGTAALGCLVKDYFPEPVTVSWNSGALTSGVHTFPAVLQSSGLYSLSSVVTVPSSSLGTQTYICNVNHKPSNTKVDKKVEPKSCDKTHTCPPCPAPEAAGGPSVFLFPPKPKDTLMISRTPEVTCVVVSVSHEDPEVKFNWYVDGVEVHNAKTKPREEQYNSTYRVVSVLTVLHQDWLNGKEYKCKVSNKALPAPIEKTISKAKGQPREPQVYVYPPSREEMTKNQVSLTCLVKGFYPSDIAVEWESNGQPENNYKTTPPVLDSDGSFALVSKLTVDKSRWQQGNVFSCSVMHEALHNHYTQKSLSLSPG
light: QSALTQPASVSGSPGQSITISCTGTSSNIGTYKFVSWYQQHPDKAPKVLLYEVSKRPSGVSSRFSGSKSGNTASLTISGLQAEDQADYHCVSYAGSGTLLFGGGTKLTVLGQPKAAPSVTLFPPSSEELQANKATLVCLISDFYPGAVTVAWKADSSPVKAGVETTTPSKQSNNKYAASSYLSLTPEQWKSHRSYSCQVTHEGSTVEKTVAPTECS
scFv: DIVMTQSPDSLAVSLGERATINCKSSQSVLHSSNNKNYLTWFQQKPGQPPKLLIYWASTRESGVPDRFSGSGSGTDFTLTISSLQAEDVAVYYCHQYYSTPPTFGQGTKVEIKGGSEGKSSGSGSESKSTGGSQVQLQQSGPGLVKPSQTLSLTCAISGDSVSSNSAAWNWIRQSPSRGLEWLGRTYYRSKWYNDYAVSVKSRITINPDTSKNQISLQLNSVTPEDTAVYYCAGDRRYGIVGLPFAYWGQGTLVTVSSEPKSSDKTHTCPPCPAPEAAGGPSVFLFPPKPKDTLMISRTPEVTCVVVSVSHEDPEVKFNWYVDGVEVHNAKTKPREEQYNSTYRVVSVLTVLHQDWLNGKEYKCKVSNKALPAPIEKTISKAKGQPREPQVYVLPPSREEMTKNQVSLLCLVKGFYPSDIAVEWESNGQPENNYLTWPPVLDSDGSFFLYSKLTVDKSRWQQGNVFSCSVMHEALHNHYTQKSLSLSPG

What follows are binders tested against HLA-G on NCI-H2009-b2m target cells (human, UniProt P17693 25-338) (assay: cell-based or functional assay).

| Binder | Cytotoxicity, EC50 (M); T cell-mediated cytotoxicity against NCI-H2009-b2m cells, 72 hr, E:T 3:1 [M] |
| --- | --- |
| B1 | 6.77e-12 |
| B2 | 1.26e-10 |
| B3 | 9.92e-12 |
| B4 | 1.73e-11 |
| B5 | 4.54e-09 |
| B6 | 1.33e-10 |
| B7 | 8.37e-11 |
| B8 | 5.65e-11 |
